Measurements reported in US20110301073, “Novel DNA-binding proteins and uses thereof” (Sangamo BioSciences, Inc., published 2011).

Target: T1, NT-L +278 VP16 (R23570V) (Xanthomonas sp. (engineered), UniProt P14727 SEQ:1-1013)
T1 chain: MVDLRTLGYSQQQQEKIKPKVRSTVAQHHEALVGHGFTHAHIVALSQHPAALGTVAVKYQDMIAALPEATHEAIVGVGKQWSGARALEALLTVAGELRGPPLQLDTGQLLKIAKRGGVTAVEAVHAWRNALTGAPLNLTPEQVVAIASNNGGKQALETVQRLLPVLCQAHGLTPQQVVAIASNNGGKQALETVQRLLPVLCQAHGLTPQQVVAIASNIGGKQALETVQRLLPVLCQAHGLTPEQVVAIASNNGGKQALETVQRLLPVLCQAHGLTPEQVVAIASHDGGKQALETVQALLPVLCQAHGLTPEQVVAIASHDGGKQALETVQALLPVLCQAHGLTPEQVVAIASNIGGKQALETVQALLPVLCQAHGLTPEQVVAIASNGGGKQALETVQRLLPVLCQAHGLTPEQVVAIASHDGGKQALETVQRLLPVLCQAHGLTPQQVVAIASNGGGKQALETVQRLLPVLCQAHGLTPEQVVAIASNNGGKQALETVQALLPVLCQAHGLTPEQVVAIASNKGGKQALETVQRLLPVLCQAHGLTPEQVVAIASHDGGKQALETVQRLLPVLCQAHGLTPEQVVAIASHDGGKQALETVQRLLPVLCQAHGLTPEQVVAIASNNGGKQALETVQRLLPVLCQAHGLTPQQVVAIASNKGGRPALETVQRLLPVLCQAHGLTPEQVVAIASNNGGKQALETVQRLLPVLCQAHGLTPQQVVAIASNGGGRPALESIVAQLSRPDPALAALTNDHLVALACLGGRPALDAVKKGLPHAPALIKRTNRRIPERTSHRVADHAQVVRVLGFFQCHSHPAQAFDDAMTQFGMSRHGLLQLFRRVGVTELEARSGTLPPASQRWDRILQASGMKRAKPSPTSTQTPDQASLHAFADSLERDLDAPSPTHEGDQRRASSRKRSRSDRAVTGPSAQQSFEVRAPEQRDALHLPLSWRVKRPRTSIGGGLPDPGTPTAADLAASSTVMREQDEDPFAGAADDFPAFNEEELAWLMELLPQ
Assay: cell_activity; luciferase reporter with 2 sites
Settings: tags: VP16

B1: NT-L target (NTF3 promoter) (dsDNA)
DNA 1: GGAGCCATCTGGCCGGGT
DNA 2: ACCCGGCCAGATGGCTCC
Work on B1 yielded an activity of 74.5 fold activation.
